Measured values: the emibetuzumab library of Makowski et al. (2022)

B1: VH:VL chains; a variant is named by its letters at X, in order (parent)
chain 1: QVQLVQSGAEVKKPGASVKVSCKASGYTFTDYXMHWVRQAPGQGLEWMGXVNPNXXXTTYNQKFEGRVTMTTDTSTSTAYMELRSLRSDDTAVYYCARXNXLDXWGQGTTVTVSS
chain 2: DIQMTQSPSSLSASVGDRVTITCSVSSSVSSIYLHWYQQKPGKAPKLLIYSTSNLASGVPSRFSGSGSGTDFTLTISSLQPEDFATYYCQVYSGYPLTFGGGTKVEIK

Variants of: B1
Experiment: yeast display scFab, FACS + sequencing
In short: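 The non-specific binding call was based on sorted and sequenced yeast displaying a heavy-chain CDR mutant scFab library. Labelling used anti-Myc with biotinylated ovalbumin (260 μg/mL in PBSB, 3 h, room temperature) or soluble membrane proteins (130 μg/mL, 20 min on ice), and FACS collected the top 25% and bottom 10% of binders in two replicates. Positive meant present in ≥3 of 4 pooled positive samples and in no negatives, and negative meant the converse.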

| Variant | non-specific binding call |
| --- | --- |
| YRAGGSWF | binds |
| VRAGGAWV | binds |
| YRAGDSSS | no binding |
| YRAGDSSA | no binding |
| VRARGAAD | no binding |
| VRARGAAY | binds |
| VRARGDGY | no binding |
| YRAGGYWY | binds |
| YRAKGAVV | binds |
| VRAGGSGD | binds |
| YRARGSAA | binds |
| YRARGSAD | binds |
| YRARGSAV | binds |
| YRAGGFVV | binds |
| YRAGGFVA | binds |
| SRARDFGY | no binding |
| VRAGDDGV | no binding |
| VRAGDDGS | no binding |
| VRAGDDGA | no binding |
| YRARGDGV | no binding |
| DRAGDSSA | no binding |
| DRAGDDSA | no binding |
| VRAGGSVA | binds |
| FRAGGSSV | binds |
| YRAGGSSY | binds |

| Variant | non-specific binding call |
| --- | --- |
| YRAGGVAV | binds |
| YRAGDSVD | no binding |
| YRAKGSLA | binds |
| YRAKGSLD | binds |
| YRAGDAVV | no binding |
| VRAGDYLV | no binding |
| YRAKGYGA | binds |
| YRAKSSSS | binds |
| YRAKGAGS | binds |
| YRAKGAGV | binds |
| YRAKGAGA | binds |
| YRAKGAGD | binds |
| FRAGGAWY | binds |
| FRAGGAWS | binds |
| FRAGGAWV | binds |
| DRAGDDWV | no binding |
| DRAGDDWY | no binding |
| DRAGDDWA | no binding |
| DRAGDYLY | no binding |
| DRAGDYLV | no binding |
| YRAGGYAA | binds |
| YRAGGSVA | binds |
| VRAGDALV | no binding |
| FRAGDYLV | no binding |
| ARAGGSVV | no binding |

| Variant | non-specific binding call |
| --- | --- |
| FRAGSAVV | binds |
| SRAGDYLV | no binding |
| YRAGSSGA | binds |
| YRAGSSGD | binds |
| YRAGSSGV | binds |
| VRAGDSVA | no binding |
| YRAGGALS | binds |
| YRARGAWD | binds |
| YRARGAWF | binds |
| YRARGAWS | binds |
| YRARGAWV | binds |
| YRARGAWY | binds |
| VRARGALV | binds |
| VRAGDSGY | no binding |
| YRAGSSAD | binds |
| YRAGDAAD | no binding |
| YRAGTAAA | binds |
| VRAGGDWV | no binding |
| YRAKSALV | binds |
| ARAKTSWV | binds |
| VRAGDAGV | no binding |
| VRAGDAGA | no binding |
| YRAKDALA | no binding |
| VRAGDDVD | no binding |
| VRAGDDVF | no binding |

| Variant | non-specific binding call |
| --- | --- |
| VRAGDDVA | no binding |
| DRAGGAGD | no binding |
| YRAGSSWD | binds |
| YRAGDFGV | no binding |
| YRAGGAWY | binds |
| FRAGGAAV | binds |
| FRAGGAAA | binds |
| ARARGSGA | binds |
| FRAGGSAA | binds |
| ARAGDYLV | no binding |
| DRAGDALD | no binding |
| VRAKGSAD | binds |
| ARAGSAWA | binds |
| YRAGDSGY | no binding |
| YRAGGASA | binds |
| SRAGGSLY | binds |
| YRAGGVVA | binds |
| YRAKGSVD | binds |
| DRAGDSWD | no binding |
| DRAGDSWA | no binding |
| DRAGDDVY | no binding |
| DRAGDDVV | no binding |
| DRAGDDVF | no binding |
| YRARGAVA | binds |
| YRARGAVS | binds |

| Variant | non-specific binding call |
| --- | --- |
| VRAKGAGY | binds |
| YRAKSSGV | binds |
| YRARGALV | binds |
| YRARGALS | binds |
| FRAGGSLF | binds |
| FRAGGSLY | binds |
| YRAGGDAD | binds |
| VRAGDSSA | no binding |
| VRAGDSSV | no binding |
| YRAKGSWD | binds |
| YRAKGSAD | binds |
| YRAKGSAA | binds |
| YRAKGSAV | binds |
| YRAKGSGD | binds |
| YRAKGSGV | binds |
| YRAGDALD | no binding |
| YRAGGAAF | binds |
| FRAGSAWS | binds |
| FRAGGAVD | binds |
| FRAGGAVY | binds |
| YRAGSAAD | binds |
| YRAGSAAA | binds |
| DRAGDASD | no binding |
| FRAGDAGV | binds |
| YRARGFGV | binds |

| Variant | non-specific binding call |
| --- | --- |
| YRARGFGA | binds |
| VRAGADVA | no binding |
| VRAGADVV | no binding |
| VRAGADVY | no binding |
| VRAGADVD | no binding |
| DRAGDSLV | no binding |
| DRAGDSLD | no binding |
| YRAGGDWY | binds |
| FRAKGSAD | binds |
| YRARGDLD | binds |
| ARAGGAAA | binds |
| YRAKGALS | binds |
| YRAKGALF | binds |
| YRAKGALA | binds |
| VRARGFVV | binds |
| DRAGDSGF | no binding |
| DRAGDSGA | no binding |
| YRARGAGV | binds |
| YRARGAGF | binds |
| YRARGAGY | binds |
| YRARGAGS | binds |
| YRARGAGA | binds |
| DRAGDDGY | no binding |
| DRAGDDGD | no binding |
| DRAGDDGA | no binding |

| Variant | non-specific binding call |
| --- | --- |
| DRAGDDGS | no binding |
| YRAGSASD | binds |
| YRARGSLA | binds |
| YRAGTAVD | binds |
| YRAGTAVS | binds |
| VRAGGDAV | no binding |
| VRAGGDAA | no binding |
| DRAGDAAA | no binding |
| DRAGDAAV | no binding |
| YRAKGAAV | binds |
| YRAKGAAA | binds |
| YRAKGAAD | binds |
| DRAGDSVD | no binding |
| YRAKSAVF | binds |
| FRAGGAGA | binds |
| FRAGGAGV | binds |
| YRAGASLA | binds |
| VRAGSSLD | no binding |
| VRAGGDVF | no binding |
| VRAGDDAV | no binding |
| FRAGSSWD | binds |
| VRAGGSAD | binds |
| YRAGGDSA | no binding |
| YRAKGSSS | binds |
| YRAGTSGD | binds |

| Variant | non-specific binding call |
| --- | --- |
| FRAGGALS | binds |
| VRAGADWY | no binding |
| SRARGAGA | binds |
| VRAGGDSF | no binding |
| YRAGDSWD | no binding |
| FRAGGSGD | binds |
| FRAGGSGA | binds |
| VRARGAWF | binds |
| FRAGGVGV | binds |
| ARAGSFWA | binds |
| DRAGDDAV | no binding |
| YRAGGAGY | binds |
| YRARGSGY | binds |
| YRARGSGV | binds |
| FRARGAAY | binds |
| FRARGAAV | binds |
| DRAGDAVS | no binding |
| DRAGDAVD | no binding |
| VRAGGDLA | no binding |
| VRARGDVS | no binding |
| YRARDDVF | no binding |
| FRAGSSGV | binds |
| YRAKGVGA | binds |
| YRAGASAD | binds |
| YRAGASAV | binds |

| Variant | non-specific binding call |
| --- | --- |
| YRARGAAS | binds |
| YRARGAAY | binds |
| ARAGDAVV | no binding |
| ARAGDAVA | no binding |
| DRAGDDLA | no binding |
| DRAGDDLY | no binding |
| VRAGDSLS | no binding |
| VRAGDSLD | no binding |
| YRAGDDVY | no binding |
| YRAGDDVA | no binding |
| VRAGGFGA | binds |
| YRAKGAWY | binds |
| YRAGGFGS | binds |
| YRAGGFGY | binds |
| SRARGAAA | binds |
| FRARGSGA | binds |
| YRAGGYGY | binds |
| YRAGGYGD | binds |
| YRAGGYGF | binds |
| YRARGASA | binds |
| FRAGGSVD | binds |
| VRAGAFSV | no binding |
| YRAGGVGS | binds |
| YRAGGVGF | binds |
| YRAGGVGD | binds |

| Variant | non-specific binding call |
| --- | --- |
| VRAGDDSD | no binding |
| YRAGASGD | binds |
| YRAGASGA | binds |
| FRARGAGA | binds |
| FRARGAGS | binds |
| FRARGAGV | binds |
| VRARGAGF | binds |
| YRAGGYVD | binds |
| YRAGGYVA | binds |
| YRAGGYVF | binds |
| VRAGSSWD | binds |
| ARAGDDAV | no binding |
| DRAGDAGV | no binding |
| DRAGDAGS | no binding |
| DRAGDAGY | no binding |
| DRAGDAGA | no binding |
